Test results from patent publication US20190224291A1 (GENOIMMUNE THERAPEUTICS, published 2019).

These binders were tested against T1, HLA-A0201 on T2 cells (human) (assay: T2 cell peptide binding assay, flow cytometry with FITC anti-HLA-A0201, peptide 100 uM).
T1 construct: MHC class I on TAP-deficient T2 cells; also called HLA-A2; HLA-A0201 molecule
Procedure: (§1) Cells were collected by centrifugation of the cell culture at 200 g for 5 minutes. The collected cells were washed twice with PBS, and then directly incubated with FITC-conjugated anti-HLA-A0201 monoclonal antibody at 4° C. for 30 minutes. The mean fluorescence intensity (MFI) was then detected and analyzed by flow cytometer (BD FACSJazz™) and its software. The fluorescence index (FI) was calculated by using the following formula:

Binder	Average fluorescence intensity
FMVDGSWSI (Synthetic peptide, purity >90%) [wild-type peptide FMVDGSWSI]	772
FLVDGFWSI (Synthetic peptide) [variant peptide FLVDGFWSI]	701
FLVDGFWSL (Synthetic peptide) [variant peptide FLVDGFWSL]	664
FLVDGFWSV (Synthetic peptide) [variant peptide FLVDGFWSV]	642
FMVDGFWSL (Synthetic peptide) [variant peptide FMVDGFWSL]	748
FMVDGFWSV (Synthetic peptide) [variant peptide FMVDGFWSV]	721

The binders below were run against T1, HLA-A0201 on T2 cells (assay: T2 cell peptide binding assay, fluorescence index = (MFI sample - MFI background)/MFI background, peptide 100 uM).
Procedure: as §1

Binder	FI
FMVDGSWSI (Synthetic peptide, purity >90%) [wild-type peptide FMVDGSWSI]	2.38
FLVDGFWSI (Synthetic peptide) [variant peptide FLVDGFWSI]	2.07
FLVDGFWSL (Synthetic peptide) [variant peptide FLVDGFWSL]	1.91
FLVDGFWSV (Synthetic peptide) [variant peptide FLVDGFWSV]	1.81
FMVDGFWSL (Synthetic peptide) [variant peptide FMVDGFWSL]	2.28
FMVDGFWSV (Synthetic peptide) [variant peptide FMVDGFWSV]	2.16
